Results as given in patent US20230143003A1 (JULIUS MAXIMILIANS UNIVERSIT T W RZBURG, published 2023).
Read-outs that look alike come from different tables or passages of the source.

Tests used:
[1] = molecular target: T1, hROR2-Fc (human ROR2 Fc fusion protein) (human, UniProt Q01974 34-403, limits assumed); test: SPR (Biacore X100), Fc-hROR2 captured on CM5 chip via mouse anti-human Fcγ mAb, Fab as analyte, 1:1 binding model
T1 construct: Given both as hROR2-Fc and as Fc-hROR2, so the order of the two parts is not certain; also called Fc-hROR2; not shown: human Fc part (captured by a mouse anti-human IgG CH2 / Fcγ mAb)

[2] = molecular target: T1, hROR2-Fc (human ROR2 Fc fusion protein); test: SPR, Biacore X100; hROR2-Fc captured, Fab injected
Procedure: (§1) A CM5 chip immobilized with a mouse anti-human Fcγ mAb was used to capture Fc-hROR2.
(§2) Kinetic and thermodynamic parameters for the ROR2 binding of purified anti-ROR2 Fab variants were measured by use of SPR as previously described [29], performed on a Biacore X100 instrument using Biacore reagents and software (GE Healthcare). Briefly, a CM5 sensor chip was immobilized with a mouse anti-human IgG CH2 mAb in order to capture the hROR2-Fc antigen.

[3] = molecular target: T1, hROR2-Fc (human ROR2 Fc fusion protein); test: SPR (Biacore X100), Fc-hROR2 captured on CM5 chip via mouse anti-human Fcγ mAb, Fab as analyte, 1:1 binding model; remark: listed apart in the source
Procedure: as §1, §2

[4] = molecular target: T2, human ROR1 on cells (MDA-MB-231, ROR2-, ROR1+; also 786-O, ROR2+, ROR1+) (human, UniProt Q01973 30-937); test: flow cytometry on MDA-MB-231 cells (ROR2-, ROR1+); Fab followed by PE-conjugated goat anti-human F(ab')2 pAbs
T2 construct: whole, on cells
Procedure: Cells were analyzed using a FACSCanto instrument (BD Biosciences) and FlowJo analytical software (Tree Star).

Binder | Kd [1] | koff [1] | kon [1] | Kd [2] | koff [3] | kon [3] | binding result [4]
X3.6 (Fab, V domains shown, one of the top 12 chimeric rabbit/human anti-human ROR2 Fabs selected from the focused HCDR3 mutagenesis library) VH: QSVKESEGGLFKPTDTLTLTCTVSGFSLSSYGVTWVRQAPGSGLEWIGYINTAGNTYYASWAKSRSTITRNTNENTVTLKMTSLTAADTATYFCARDSRNSLNIWGPGTLVTVSS VL: DPMLTQTPSSTSTAVGDTVTIKCQASQSISSDLSWYQQKPGQRPKLLIYQASTLASGVPSRFKGSGYGTEYTLTISGVQREDAAIYYCLGGYADASYRTAFGGGTKLEIK | 3.2 nM | 0.00019 s⁻¹ | 60000 M⁻¹ s⁻¹ | – | – | – | –
X4.21 (Fab, V domains shown, one of the top 12 chimeric rabbit/human anti-human ROR2 Fabs selected from the focused HCDR3 mutagenesis library) VH: QSVKESEGGLFKPTDTLTLTCTVSGFSLSSYGVTWVRQAPGSGLEWIGYINTAGNTYYASWAKSRSTITRNTNENTVTLKMTSLTAADTATYFCARDSGVVSLNIWGPGTLVTVSS VL: DPMLTQTPSSTSTAVGDTVTIKCQASQSISSDLSWYQQKPGQRPKLLIYQASTLASGVPSRFKGSGYGTEYTLTISGVQREDAAIYYCLGGYADASYRTAFGGGTKLEIK | 3.4 nM | 8.1e-05 s⁻¹ | 24000 M⁻¹ s⁻¹ | – | – | – | –
XBR2-401 Fab (parental chimeric rabbit/human anti-human ROR2 Fab) (Fab, V domains shown, Chimeric rabbit/human Fab (rabbit variable domains, human constant domains, kappa light chain, His tag)) VH: QSVKESEGGLFKPTDTLTLTCTVSGFSLSSYGVTWVRQAPGSGLEWIGYINTAGNTYYASWAKSRSTITRNTNENTVTLKMTSLTAADTATYFCARDWTSLNIWGPGTLVTVSS VL: DPMLTQTPSSTSTAVGDTVTIKCQASQSISSDLSWYQQKPGQRPKLLIYQASTLASGVPSRFKGSGYGTEYTLTISGVQREDAAIYYCLGGYADASYRTAFGGGTKLEIK | 7 nM | – | – | – | – | – | –
X4.12 (Fab, V domains shown, one of the top 12 chimeric rabbit/human anti-human ROR2 Fabs selected from the focused HCDR3 mutagenesis library) VH: QSVKESEGGLFKPTDTLTLTCTVSGFSLSSYGVTWVRQAPGSGLEWIGYINTAGNTYYASWAKSRSTITRNTNENTVTLKMTSLTAADTATYFCARDYMMNSLNIWGPGTLVTVSS VL: DPMLTQTPSSTSTAVGDTVTIKCQASQSISSDLSWYQQKPGQRPKLLIYQASTLASGVPSRFKGSGYGTEYTLTISGVQREDAAIYYCLGGYADASYRTAFGGGTKLEIK | 2.8 nM | 0.00015 s⁻¹ | 53000 M⁻¹ s⁻¹ | – | – | – | –
X2.12 (Fab, V domains shown, one of the top 12 chimeric rabbit/human anti-human ROR2 Fabs selected from the focused HCDR3 mutagenesis library) VH: QSVKESEGGLFKPTDTLTLTCTVSGFSLSSYGVTWVRQAPGSGLEWIGYINTAGNTYYASWAKSRSTITRNTNENTVTLKMTSLTAADTATYFCARDTMSLNIWGPGTLVTVSS VL: DPMLTQTPSSTSTAVGDTVTIKCQASQSISSDLSWYQQKPGQRPKLLIYQASTLASGVPSRFKGSGYGTEYTLTISGVQREDAAIYYCLGGYADASYRTAFGGGTKLEIK | 1.2 nM | 4e-05 s⁻¹ | 34000 M⁻¹ s⁻¹ | – | – | – | –
X4.3 (Fab, V domains shown, one of the top 12 chimeric rabbit/human anti-human ROR2 Fabs selected from the focused HCDR3 mutagenesis library) VH: QSVKESEGGLFKPTDTLTLTCTVSGFSLSSYGVTWVRQAPGSGLEWIGYINTAGNTYYASWAKSRSTITRNTNENTVTLKMTSLTAADTATYFCARDWGNWSLNIWGPGTLVTVSS VL: DPMLTQTPSSTSTAVGDTVTIKCQASQSISSDLSWYQQKPGQRPKLLIYQASTLASGVPSRFKGSGYGTEYTLTISGVQREDAAIYYCLGGYADASYRTAFGGGTKLEIK | 1.3 nM | 3.8e-05 s⁻¹ | 30000 M⁻¹ s⁻¹ | – | – | – | –
X3.13 (Fab, V domains shown, one of the top 12 chimeric rabbit/human anti-human ROR2 Fabs selected from the focused HCDR3 mutagenesis library) VH: QSVKESEGGLFKPTDTLTLTCTVSGFSLSSYGVTWVRQAPGSGLEWIGYINTAGNTYYASWAKSRSTITRNTNENTVTLKMTSLTAADTATYFCARDKGWSLNIWGPGTLVTVSS VL: DPMLTQTPSSTSTAVGDTVTIKCQASQSISSDLSWYQQKPGQRPKLLIYQASTLASGVPSRFKGSGYGTEYTLTISGVQREDAAIYYCLGGYADASYRTAFGGGTKLEIK | 1.1 nM | 2.7e-05 s⁻¹ | 26000 M⁻¹ s⁻¹ | – | – | – | –
X3.21 (Fab, V domains shown, one of the top 12 chimeric rabbit/human anti-human ROR2 Fabs selected from the focused HCDR3 mutagenesis library) VH: QSVKESEGGLFKPTDTLTLTCTVSGFSLSSYGVTWVRQAPGSGLEWIGYINTAGNTYYASWAKSRSTITRNTNENTVTLKMTSLTAADTATYFCARDGLTSLNIWGPGTLVTVSS VL: DPMLTQTPSSTSTAVGDTVTIKCQASQSISSDLSWYQQKPGQRPKLLIYQASTLASGVPSRFKGSGYGTEYTLTISGVQREDAAIYYCLGGYADASYRTAFGGGTKLEIK | 1.9 nM | 9.2e-05 s⁻¹ | 49000 M⁻¹ s⁻¹ | – | – | – | –
X4.9 (Fab, V domains shown, one of the top 12 chimeric rabbit/human anti-human ROR2 Fabs selected from the focused HCDR3 mutagenesis library) VH: QSVKESEGGLFKPTDTLTLTCTVSGFSLSSYGVTWVRQAPGSGLEWIGYINTAGNTYYASWAKSRSTITRNTNENTVTLKMTSLTAADTATYFCARDNGSTSLNIWGPGTLVTVSS VL: DPMLTQTPSSTSTAVGDTVTIKCQASQSISSDLSWYQQKPGQRPKLLIYQASTLASGVPSRFKGSGYGTEYTLTISGVQREDAAIYYCLGGYADASYRTAFGGGTKLEIK | 10 nM | 0.00034 s⁻¹ | 33000 M⁻¹ s⁻¹ | – | – | – | –
X2.23 (Fab, V domains shown, one of the top 12 chimeric rabbit/human anti-human ROR2 Fabs selected from the focused HCDR3 mutagenesis library) VH: QSVKESEGGLFKPTDTLTLTCTVSGFSLSSYGVTWVRQAPGSGLEWIGYINTAGNTYYASWAKSRSTITRNTNENTVTLKMTSLTAADTATYFCARDYTSLNIWGPGTLVTVSS VL: DPMLTQTPSSTSTAVGDTVTIKCQASQSISSDLSWYQQKPGQRPKLLIYQASTLASGVPSRFKGSGYGTEYTLTISGVQREDAAIYYCLGGYADASYRTAFGGGTKLEIK | 1.4 nM | 4.7e-05 s⁻¹ | 33000 M⁻¹ s⁻¹ | – | – | – | –
X4.35 (Fab, V domains shown, one of the top 12 chimeric rabbit/human anti-human ROR2 Fabs selected from the focused HCDR3 mutagenesis library) VH: QSVKESEGGLFKPTDTLTLTCTVSGFSLSSYGVTWVRQAPGSGLEWIGYINTAGNTYYASWAKSRSTITRNTNENTVTLKMTSLTAADTATYFCARDSRRKSLNIWGPGTLVTVSS VL: DPMLTQTPSSTSTAVGDTVTIKCQASQSISSDLSWYQQKPGQRPKLLIYQASTLASGVPSRFKGSGYGTEYTLTISGVQREDAAIYYCLGGYADASYRTAFGGGTKLEIK | 31 nM | 0.0017 s⁻¹ | 54000 M⁻¹ s⁻¹ | – | – | – | –
X2.7 (Fab, V domains shown, one of the top 12 chimeric rabbit/human anti-human ROR2 Fabs selected from the focused HCDR3 mutagenesis library) VH: QSVKESEGGLFKPTDTLTLTCTVSGFSLSSYGVTWVRQAPGSGLEWIGYINTAGNTYYASWAKSRSTITRNTNENTVTLKMTSLTAADTATYFCARDSMSLNIWGPGTLVTVSS VL: DPMLTQTPSSTSTAVGDTVTIKCQASQSISSDLSWYQQKPGQRPKLLIYQASTLASGVPSRFKGSGYGTEYTLTISGVQREDAAIYYCLGGYADASYRTAFGGGTKLEIK | 1.5 nM | 0.0001 s⁻¹ | 69000 M⁻¹ s⁻¹ | – | – | – | –
hX3.12.8 Fab (Fab, V domains shown, The text says that hX3.12.5 to hX3.12.8 all utilized VL2) VH: EQQVVESGGGLVQPGGSLRLSCAASGFSLSSYGVTWVRQAPGKGLEWVGYINTAGNTYYASWAKSRFTISRDNSKNTVYLQMNSLRAEDTAVYYCARDDRWSLNIWGQGTLVTVSS VL: DPMLTQSPSSLSASVGDRVTITCQASQSISSDLSWYQQKPGKAPKLLIYQASTLASGVPSRFKGSGYGTEYTLTISSLQPEDFATYYCLGGYADASYRTAFGGGTKLEIK | – | – | – | 5.2 nM | 0.00067 s⁻¹ | 130000 M⁻¹ s⁻¹ | –
h401.6 Fab (hX3.12.6 framework regions with parental 401 CDR sequences) (Fab, V domains shown, this is an inference) VH: EVQLVESGGGLVQPGGSLRLSCAASGFTFSSYGVTWVRQAPGKGLEWVSYINTAGNTYYASWAKSRFTISRDNAKNSLYLQMNSLRAEDTAVYYCARDWTSLNIWGQGTLVTVSS VL: DPMLTQSPSSLSASVGDRVTITCQASQSISSDLSWYQQKPGKAPKLLIYQASTLASGVPSRFKGSGYGTEYTLTISSLQPEDFATYYCLGGYADASYRTAFGGGTKLEIK | – | – | – | 16 nM | 0.00023 s⁻¹ | 14000 M⁻¹ s⁻¹ | no binding
hX3.12.7 Fab (Fab, V domains shown, The text says that hX3.12.5 to hX3.12.8 all utilized VL2) VH: EQQVVESGGGLVQPGGSLRLSCAVSGFSLSSYGVTWVRQAPGKGLEWIGYINTAGNTYYASWAKSRFTISRNTNENTVYLQMNSLRAEDTAVYFCARDDRWSLNIWGQGTLVTVSS VL: DPMLTQSPSSLSASVGDRVTITCQASQSISSDLSWYQQKPGKAPKLLIYQASTLASGVPSRFKGSGYGTEYTLTISSLQPEDFATYYCLGGYADASYRTAFGGGTKLEIK | – | – | – | 1.4 nM | 0.00016 s⁻¹ | 110000 M⁻¹ s⁻¹ | –
XBR2-401-hX3.12.6 Fab (affinity matured and humanized) (Fab, V domains shown, Fab expressed in E. coli) VH: EVQLVESGGGLVQPGGSLRLSCAASGFTFSSYGVTWVRQAPGKGLEWVSYINTAGNTYYASWAKSRFTISRDNAKNSLYLQMNSLRAEDTAVYYCARDDRWSLNIWGQGTLVTVSS VL: DPMLTQSPSSLSASVGDRVTITCQASQSISSDLSWYQQKPGKAPKLLIYQASTLASGVPSRFKGSGYGTEYTLTISSLQPEDFATYYCLGGYADASYRTAFGGGTKLEIK | – | – | – | 3.8 nM | 0.00022 s⁻¹ | 60000 M⁻¹ s⁻¹ | no binding
XBR2-401-hX3.12.5 Fab (affinity matured and humanized) (Fab, V domains shown, Fab expressed in E. coli) VH: EVQLVESGGGLIQPGGSLRLSCAASGFTVSSYGVTWVRQAPGKGLEWVSYINTAGNTYYASWAKSRFTISRDNSKNTLYLQMNSLRAEDTAVYYCARDDRWSLNIWGQGTLVTVSS VL: DPMLTQSPSSLSASVGDRVTITCQASQSISSDLSWYQQKPGKAPKLLIYQASTLASGVPSRFKGSGYGTEYTLTISSLQPEDFATYYCLGGYADASYRTAFGGGTKLEIK | – | – | – | 2.6 nM | 0.00048 s⁻¹ | 190000 M⁻¹ s⁻¹ | no binding
